Assays:
ecMutS [1] = biological target: T1, ecMutS (Escherichia coli, UniProt P23909 1-853); test: EMSA; 1 mM ATP, 5 mM MgCl2; MutS EMSA: 5 nM DNA, 20 mM HEPES-KOH pH 7.9, 5 mM MgCl2, 120 mM KCl, 0.5 mg/mL BSA, 1 mM nucleotide, 37 C 15 min; MutL EMSA: 100 nM DNA, 20 mM HEPES pH 8.0 (10); settings: protein: recombinant, chain copies: 2, blunt
T1 sequence: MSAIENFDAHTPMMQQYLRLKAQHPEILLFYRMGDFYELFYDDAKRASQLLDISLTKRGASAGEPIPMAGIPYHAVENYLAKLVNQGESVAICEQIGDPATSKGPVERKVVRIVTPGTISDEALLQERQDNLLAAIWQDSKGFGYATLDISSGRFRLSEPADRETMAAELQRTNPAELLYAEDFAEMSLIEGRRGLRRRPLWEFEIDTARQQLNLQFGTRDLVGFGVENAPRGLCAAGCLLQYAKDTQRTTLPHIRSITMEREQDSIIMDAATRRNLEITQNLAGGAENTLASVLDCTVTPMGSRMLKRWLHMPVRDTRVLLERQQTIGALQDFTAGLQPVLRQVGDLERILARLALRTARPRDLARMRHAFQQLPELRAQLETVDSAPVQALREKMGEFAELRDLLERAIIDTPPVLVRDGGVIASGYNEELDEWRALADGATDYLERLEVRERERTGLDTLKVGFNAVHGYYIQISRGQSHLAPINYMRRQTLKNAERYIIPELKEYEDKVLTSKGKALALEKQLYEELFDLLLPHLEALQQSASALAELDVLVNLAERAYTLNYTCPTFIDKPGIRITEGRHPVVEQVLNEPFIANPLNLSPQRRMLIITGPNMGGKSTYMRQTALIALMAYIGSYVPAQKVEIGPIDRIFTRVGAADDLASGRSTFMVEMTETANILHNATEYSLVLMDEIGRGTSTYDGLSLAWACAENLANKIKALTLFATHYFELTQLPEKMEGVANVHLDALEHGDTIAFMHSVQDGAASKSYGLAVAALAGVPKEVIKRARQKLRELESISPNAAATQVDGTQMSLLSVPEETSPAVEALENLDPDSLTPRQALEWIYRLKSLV

rsMutS [2] = biological target: T2, rsMutS (Rhodobacter sphaeroides strain 2.4.1, UniProt Q3IYI5 1-875); test: as above; settings: protein: recombinant, tags: N-terminal His6 (pET15b), chain copies: 2, blunt
T2 sequence: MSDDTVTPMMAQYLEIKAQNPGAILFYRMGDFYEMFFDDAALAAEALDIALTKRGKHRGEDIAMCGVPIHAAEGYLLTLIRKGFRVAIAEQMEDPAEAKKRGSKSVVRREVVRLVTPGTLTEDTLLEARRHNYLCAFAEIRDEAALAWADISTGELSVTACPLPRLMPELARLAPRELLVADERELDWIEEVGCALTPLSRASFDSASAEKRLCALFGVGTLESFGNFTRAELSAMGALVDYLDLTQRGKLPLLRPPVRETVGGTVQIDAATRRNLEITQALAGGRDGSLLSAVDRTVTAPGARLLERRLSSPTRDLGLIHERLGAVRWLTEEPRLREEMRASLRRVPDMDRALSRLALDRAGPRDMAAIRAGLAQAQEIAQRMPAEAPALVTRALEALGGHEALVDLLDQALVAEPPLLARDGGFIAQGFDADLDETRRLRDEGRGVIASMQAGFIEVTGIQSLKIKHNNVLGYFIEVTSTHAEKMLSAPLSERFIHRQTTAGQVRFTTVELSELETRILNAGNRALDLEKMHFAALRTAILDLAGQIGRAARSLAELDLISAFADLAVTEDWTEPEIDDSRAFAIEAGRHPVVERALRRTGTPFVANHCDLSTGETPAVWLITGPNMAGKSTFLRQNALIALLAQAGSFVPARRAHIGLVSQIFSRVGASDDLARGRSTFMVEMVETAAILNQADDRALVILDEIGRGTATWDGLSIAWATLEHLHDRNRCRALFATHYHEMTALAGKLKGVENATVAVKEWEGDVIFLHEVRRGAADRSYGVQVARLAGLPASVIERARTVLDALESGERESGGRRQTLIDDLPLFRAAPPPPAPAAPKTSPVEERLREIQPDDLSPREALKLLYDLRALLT

ecMutL [3] = biological target: T3, ecMutL (Escherichia coli, UniProt P23367 1-615); test: EMSA; no nucleotide, on ice, 100 nM DNA; MutS EMSA: 5 nM DNA, 20 mM HEPES-KOH pH 7.9, 5 mM MgCl2, 120 mM KCl, 0.5 mg/mL BSA, 1 mM nucleotide, 37 C 15 min; MutL EMSA: 100 nM DNA, 20 mM HEPES pH 8.0 (10); settings: protein: recombinant; chain copies: 2; label: 3'-TAMRA on strand 2 (95G4); blunt; 19-nt insert in strand 2 folded as intramolecular parallel G4 within duplex
ecMutS [4] = biological target: T1, ecMutS; test: EMSA; 1 mM ATPgS, 5 mM MgCl2; MutS EMSA: 5 nM DNA, 20 mM HEPES-KOH pH 7.9, 5 mM MgCl2, 120 mM KCl, 0.5 mg/mL BSA, 1 mM nucleotide, 37 C 15 min; MutL EMSA: 100 nM DNA, 20 mM HEPES pH 8.0 (10); settings: protein: recombinant; chain copies: 2; label: 3'-TAMRA on strand 2 (95G4); blunt; 19-nt insert in strand 2 folded as intramolecular parallel G4 within duplex
rsMutS [5] = biological target: T2, rsMutS; test: as above; settings: protein: recombinant; tags: N-terminal His6 (pET15b); chain copies: 2; label: 3'-TAMRA on strand 2 (95G4); blunt; 19-nt insert in strand 2 folded as intramolecular parallel G4 within duplex
ecMutS [6] = biological target: T1, ecMutS; test: EMSA; 1 mM ADP, 5 mM MgCl2; MutS EMSA: 5 nM DNA, 20 mM HEPES-KOH pH 7.9, 5 mM MgCl2, 120 mM KCl, 0.5 mg/mL BSA, 1 mM nucleotide, 37 C 15 min; MutL EMSA: 100 nM DNA, 20 mM HEPES pH 8.0 (10); settings: protein: recombinant, chain copies: 2, blunt
rsMutS [7] = biological target: T2, rsMutS; test: as above; settings: protein: recombinant, tags: N-terminal His6 (pET15b), chain copies: 2, blunt
ecMutL [8] = biological target: T3, ecMutL; test: EMSA; no nucleotide, on ice, 100 nM DNA; MutS EMSA: 5 nM DNA, 20 mM HEPES-KOH pH 7.9, 5 mM MgCl2, 120 mM KCl, 0.5 mg/mL BSA, 1 mM nucleotide, 37 C 15 min; MutL EMSA: 100 nM DNA, 20 mM HEPES pH 8.0 (10); settings: protein: recombinant, chain copies: 2, blunt
[9] = label: 3'-TAMRA on strand 2 (95G4), 19-nt insert in strand 2 folded as intramolecular parallel G4 within duplex
[10] = label: 3'-TAMRA on strand 2 (76T), single G/T mismatch
[11] = label: 3'-TAMRA on strand 2 (95(GT)8), 19-nt unstructured (GT)8 loop in strand 2
[12] = label: 3'-TAMRA on strand 2 (76T), perfect duplex

T3 sequence (P23367 whole entry): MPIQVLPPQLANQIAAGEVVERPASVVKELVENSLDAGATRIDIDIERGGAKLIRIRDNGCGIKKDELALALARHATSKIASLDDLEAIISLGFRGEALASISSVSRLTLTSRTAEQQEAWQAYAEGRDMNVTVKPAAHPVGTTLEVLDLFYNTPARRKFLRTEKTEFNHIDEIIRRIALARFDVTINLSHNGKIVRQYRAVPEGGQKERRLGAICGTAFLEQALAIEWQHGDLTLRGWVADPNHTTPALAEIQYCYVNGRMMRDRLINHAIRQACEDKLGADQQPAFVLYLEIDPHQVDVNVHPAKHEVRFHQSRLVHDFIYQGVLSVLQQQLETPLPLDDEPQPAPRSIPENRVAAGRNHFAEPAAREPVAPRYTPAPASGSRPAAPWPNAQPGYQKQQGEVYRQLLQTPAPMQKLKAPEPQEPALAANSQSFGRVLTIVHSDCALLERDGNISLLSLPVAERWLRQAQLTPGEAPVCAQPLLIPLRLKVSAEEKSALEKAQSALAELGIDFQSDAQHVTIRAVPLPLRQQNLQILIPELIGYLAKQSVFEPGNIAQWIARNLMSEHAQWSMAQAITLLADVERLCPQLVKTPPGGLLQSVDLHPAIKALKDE

B1: 76/95G4-A/T (mixed)
DNA 1: TCCTTTCGCGCTTGGATCCTATGAGCGTTACTCGAGCATATGGCTCAGCTGCCAAGCACCAGTGTCAGCGTCCTAT
DNA 2: ATAGGACGCTGACACTGGTGCTTGGCAGCTGAGCCATATTTGGGTGGGTGGGTGGGTTGCTCGAGTAACGCTCATAGGATCCAAGCGCGAAAGGA
modifications: N6-methyl-dA at position 16 of strand 1 (Gm6ATC)
ecMutS [1]; [9]
  Kd: 32 ± 4 nM
rsMutS [2]; [9]
  Kd: 23 ± 3 nM
ecMutL [3]
  Kd: ~200 nM
ecMutS [4]
  Kd: 31 ± 4 nM
rsMutS [5]
  Kd: 46 ± 5 nM
ecMutS [6]; [9]
  Kd: 23 ± 5 nM
rsMutS [7]; [9]
  Kd: 23 ± 3 nM

B2: 76/76-G/T (dsDNA)
DNA 1: TCCTTTCGCGCTTGGATCCTATGAGCGTTACTCGAGCATATGGCTCAGCTGCCAGGCACCAGTGTCAGCGTCCTAT
DNA 2: ATAGGACGCTGACACTGGTGCTTGGCAGCTGAGCCATATGCTCGAGTAACGCTCATAGGATCCAAGCGCGAAAGGA
modifications: N6-methyl-dA at position 16 of strand 1 (Gm6ATC)
ecMutL [8]; [10]
  binding signal: > 3.7 fold lower binding extent than 76/95G4-A/T at 0.1 uM ecMutL (at least)
ecMutS [1]; [10]
  Kd: 38 ± 4 nM
rsMutS [2]; [10]
  Kd: 60 ± 10 nM
ecMutS [6]; [10]
  Kd: 35 ± 3 nM
rsMutS [7]; [10]
  Kd: 27 ± 4 nM

B3: 76/95(GT)8-A/T (mixed)
DNA 1: TCCTTTCGCGCTTGGATCCTATGAGCGTTACTCGAGCATATGGCTCAGCTGCCAAGCACCAGTGTCAGCGTCCTAT
DNA 2: ATAGGACGCTGACACTGGTGCTTGGCAGCTGAGCCATATTTGTGTGTGTGTGTGTGTTGCTCGAGTAACGCTCATAGGATCCAAGCGCGAAAGGA
modifications: N6-methyl-dA at position 16 of strand 1 (Gm6ATC)
ecMutL [8]; [11]
  binding signal: 1.9 fold lower binding extent than 76/95G4-A/T at 0.1 uM ecMutL
ecMutS [1]; [11]
  Kd: 44 ± 6 nM
rsMutS [2]; [11]
  Kd: 43 ± 5 nM
ecMutS [6]; [11]
  Kd: 32 ± 3 nM
rsMutS [7]; [11]
  Kd: 31 ± 3 nM

B4: 76/76-A/T (dsDNA)
DNA 1: TCCTTTCGCGCTTGGATCCTATGAGCGTTACTCGAGCATATGGCTCAGCTGCCAAGCACCAGTGTCAGCGTCCTAT
DNA 2: ATAGGACGCTGACACTGGTGCTTGGCAGCTGAGCCATATGCTCGAGTAACGCTCATAGGATCCAAGCGCGAAAGGA
modifications: N6-methyl-dA at position 16 of strand 1 (Gm6ATC)
ecMutL [8]; [12]
  binding signal: > 3.7 fold lower binding extent than 76/95G4-A/T at 0.1 uM ecMutL (at least)
ecMutS [1]; [12]
  Kd: 50 ± 10 nM
rsMutS [2]; [12]
  Kd: 80 ± 30 nM
ecMutS [6]; [12]
  Kd: 38 ± 4 nM
rsMutS [7]; [12]
  Kd: 51 ± 4 nM
